The results in this text go back to the Human Domainome abundance scans (Beltran et al. 2025).

B1: Intersectin-2, residues 1129 to 1183; numbered along this chain, Q9NZM3 (parent)
chain: VCQVIAMYDYAANNEDELSFSKGQLINVMNKDDPDWWQGEINGVTGLFPSNYVKM

± gives the uncertainty stated by the source.

In this data set the parent is B1. In words: abundance fitness (aPCA) (normalised: wild type 0, dead -1); higher = more abundant; growth selection in yeast, the domain comes from the species named. The following applies: Homo sapiens.
For the variant VCQVIAMYDYAANNEDELSFSKGQLINVMNKDDPDWWQGEINGVTGLFPYNYVKM [S50Y], the abundance fitness is -0.128 ± 0.067. The result for VCQVIAMYDYAANNEDELSFSKGQLINVMNKDDPDWWQGEINGVTGLFPWNYVKM [S50W] reads -0.399 ± 0.055; that for VCQVIAMYDYAANNEDELSFSKGQLINVMNKDDPDWWQGEINGVTGLFPCNYVKM [S50C], -0.139 ± 0.055; that for VCQVIAMYDYAANNEDELSFSKGQLINVMNKDDPDWWQGEINGVTGLFPMNYVKM [S50M], 0.004 ± 0.052. In the case of VCQVIAMYDYAANNEDELSFSKGQLINVMNKDDPDWWQGEINGVTGLFPQNYVKM [S50Q] it was -0.037 ± 0.039; in that of VCQVIAMYDYAANNEDELSFSKGQLINVMNKDDPDWWQGEINGVTGLPPSNYVKM [F48P], -0.718 ± 0.19; in that of VCQVIAMYDYAANNEDELSFSKGQLINVMNKDDPDWWQGEINGVTGLIPSNYVKM [F48I], -0.085 ± 0.06. The result for VCQVIAMYDYAANNEDELSFSKGQLINVMNKDDPDWWQGEINGVTGLWPSNYVKM [F48W] reads -1 ± 0.23. For VCQVIAMYDYAANNEDELSFSKGQLINVMNKDDPDWWQGEINGVTGLGPSNYVKM [F48G], the abundance fitness is -0.945 ± 0.079. In the case of VCQVIAMYDYAANNEDELSFSKGQLINVMNKDDPDWWQGEINGVTGLMPSNYVKM [F48M] it was -0.092 ± 0.052. In the case of VCQVIAMYDYAANNEDELSFSKGQLINVMNKDDPDWWQGEINGVTGLLPSNYVKM [F48L] it was 0 ± 0.036. In the case of VCQVIAMYDYAANNEDELSFSKGQLINVMNKDDPDWWQGEINGVTGLTPSNYVKM [F48T] it was -0.85 ± 0.096.

As to VCQVIAMYDYAANNEDELSFSKGQLINVMNKDDPDWWQGEINGVTGLKPSNYVKM [F48K], the abundance fitness is -1 ± 0.12. In the case of VCQVIAMYDYAANNEDELSFSKGQLINVMNKDDPDWWQGEINGVTGLHPSNYVKM [F48H] it was -0.937 ± 0.17; in that of VCQVIAMYDYAANNEDELSFSKGQLINVMNKDDPDWWQGEINGVTGLDPSNYVKM [F48D], -0.806 ± 0.17; in that of VCQVIAMYDYAANNEDELSFSKGQLINVMNKDDPDWWQGEINGVTGLVPSNYVKM [F48V], -0.027 ± 0.031. In the case of VCQVIAMYDYAANNEDELSFSKGQLINVMNKDDPDWWQGEINGVTGLCPSNYVKM [F48C] it was -0.199 ± 0.047. The result for VCQVIAMYDYAANNEDELSFSKGQLINVMNKDDPDWWQGEINGVTGLNPSNYVKM [F48N] reads -1.17 ± 0.28; that for VCQVIAMYDYAANNEDELSFSKGQLINVMNKDDPDWWQGEINGVTGLQPSNYVKM [F48Q], -0.778 ± 0.12; that for VCQVIAMYDYAANNEDELSFSKGQLINVMNKDDPDWWQGEINGVTGLSPSNYVKM [F48S], -0.775 ± 0.049.

Regarding VCQVIAMYDYAANNEDELSFSKGQLINVMNKDDPDWWQGEINGVTGLEPSNYVKM [F48E], the abundance fitness is -0.834 ± 0.1. The result for VCQVIAMYDYAANNEDELSFSKGQLINVMNKDDPDWWQGEINGVTGLYPSNYVKM [F48Y] reads -0.898 ± 0.18. Turning to VCQVIAMYDYAANNEDELSFSKGQLINVMNKDDPDWWQGEINGVTGLAPSNYVKM [F48A], the abundance fitness was -0.69 ± 0.036. The result for VCQVIAMYDYAANNEDELSFSKGQLINVMNKDDPDWWQGEINGVTGQFPSNYVKM [L47Q] reads -0.019 ± 0.05.

Turning to VCQVIAMYDYAANNEDELSFSKGQLINVMNKDDPDWWQGEINGVTGHFPSNYVKM [L47H], the abundance fitness is -0.061 ± 0.068. In the case of VCQVIAMYDYAANNEDELSFSKGQLINVMNKDDPDWWQGEINGVTGSFPSNYVKM [L47S] it was -0.011 ± 0.03; in that of VCQVIAMYDYAANNEDELSFSKGQLINVMNKDDPDWWQGEINGVTGKFPSNYVKM [L47K], 0.039 ± 0.052; in that of VCQVIAMYDYAANNEDELSFSKGQLINVMNKDDPDWWQGEINGVTGGFPSNYVKM [L47G], -0.023 ± 0.037. The result for VCQVIAMYDYAANNEDELSFSKGQLINVMNKDDPDWWQGEINGVTGYFPSNYVKM [L47Y] reads -0.04 ± 0.049. The result for VCQVIAMYDYAANNEDELSFSKGQLINVMNKDDPDWWQGEINGVTGPFPSNYVKM [L47P] reads -0.257 ± 0.05; that for VCQVIAMYDYAANNEDELSFSKGQLINVMNKDDPDWWQGEINGVTGIFPSNYVKM [L47I], -0.183 ± 0.067. Take VCQVIAMYDYAANNEDELSFSKGQLINVMNKDDPDWWQGEINGVTGWFPSNYVKM [L47W]: the abundance fitness was -0.061 ± 0.033. With VCQVIAMYDYAANNEDELSFSKGQLINVMNKDDPDWWQGEINGVTGDFPSNYVKM [L47D], the abundance fitness was -0.142 ± 0.041. In the case of VCQVIAMYDYAANNEDELSFSKGQLINVMNKDDPDWWQGEINGVTGTFPSNYVKM [L47T] it was -0.014 ± 0.043. In the case of VCQVIAMYDYAANNEDELSFSKGQLINVMNKDDPDWWQGEINGVTGCFPSNYVKM [L47C] it was -0.185 ± 0.057; in that of VCQVIAMYDYAANNEDELSFSKGQLINVMNKDDPDWWQGEINGVTGMFPSNYVKM [L47M], -0.128 ± 0.043; in that of VCQVIAMYDYAANNEDELSFSKGQLINVMNKDDPDWWQGEINGVTGAFPSNYVKM [L47A], -0.007 ± 0.031. In the case of VCQVIAMYDYAANNEDELSFSKGQLINVMNKDDPDWWQGEINGVTGNFPSNYVKM [L47N] it was -0.086 ± 0.061. Take VCQVIAMYDYAANNEDELSFSKGQLINVMNKDDPDWWQGEINGVTGLFPSAYVKM [N51A]: the abundance fitness was -0.075 ± 0.044. The result for VCQVIAMYDYAANNEDELSFSKGQLINVMNKDDPDWWQGEINGVTGLFPSLYVKM [N51L] reads -0.149 ± 0.043; that for VCQVIAMYDYAANNEDELSFSKGQLINVMNKDDPDWWQGEINGVTGLFPSGYVKM [N51G], -0.021 ± 0.031. In the case of VCQVIAMYDYAANNEDELSFSKGQLINVMNKDDPDWWQGEINGVTGLFPSDYVKM [N51D] it was -0.005 ± 0.055; in that of VCQVIAMYDYAANNEDELSFSKGQLINVMNKDDPDWWQGEINGVTGLFPSEYVKM [N51E], -0.154 ± 0.05; in that of VCQVIAMYDYAANNEDELSFSKGQLINVMNKDDPDWWQGEINGVTGLFPSHYVKM [N51H], -0.025 ± 0.029.

As to VCQVIAMYDYAANNEDELSFSKGQLINVMNKDDPDWWQGEINGVTGLFPSMYVKM [N51M], the abundance fitness was -0.071 ± 0.032.

As to VCQVIAMYDYAANNEDELSFSKGQLINVMNKDDPDWWQGEINGVTGLFPSIYVKM [N51I], the abundance fitness was -0.077 ± 0.032. The result for VCQVIAMYDYAANNEDELSFSKGQLINVMNKDDPDWWQGEINGVTGLFPSCYVKM [N51C] reads -0.044 ± 0.058. The result for VCQVIAMYDYAANNEDELSFSKGQLINVMNKDDPDWWQGEINGVTGLFPSFYVKM [N51F] reads -0.141 ± 0.064.
